This is an account of results in patent publication US20210355194A1 (TWIST BIOSCIENCE, published 2021).

Positions count from the first letter of the chain named.

The assay deals with T1, Acro SARS-CoV-2 (COVID-19) S1 protein (SARS-CoV-2, UniProt P0DTC2 16-685).
T1 construct: also called SARS-CoV-2 S1
The assay is described as follows: SPR. For orientation: SPR reads the build-up and loss of mass on a sensor chip optically.

The Kd is the equilibrium constant for the complex coming apart. Lower therefore signals a tighter complex.

B1: variant 5-29 (Fc fusion)
VHH: EVQLVESGGGLVQPGGSLRLSCAASGFTFDDYPMGWFRQAPGKEREGVASVLRGGYTWYADSVKGRFTISADNSKNTAYLQMNSLKPEDTAVYYCAKDWATGLAWGQGTLVTVSS
Consider B1, for which binding was characterised by a dissociation constant (Kd) of 0.0424 µM.

B2: variant 5-22 (Fc fusion)
VHH: EVQLVESGGGLVQPGGSLRLSCAASGFTFNVFAMGWFRQAPGKEREFVAAINWSDSRTDYADSVKGRFTISADNSKNTAYLQMNSLKPEDTAVYYCASGSDNRARELSRYEYVWGQGTLVTVSS
Molecule B2 gave a Kd of 0.109 µM.

B3: variant 5-50 (Fc fusion)
VHH: EVQLVESGGGLVQPGGSLRLSCAASGFSLDYYGMGWFRQAPGKEREFVAAITSGGTPHYADSVKGRFTISADNSKNTAYLQMNSLKPEDTAVYYCASAYNPGIGYDWGQGTLVTVSS
Molecule B3 showed a Kd of 0.0605 µM.

B4: variant 5-59 (Fc fusion)
VHH: EVQLVESGGGLVQPGGSLRLSCAASGLTFSLYRMCWFRQAPGKEREEVSCISNIDGSTYYADSVKGRFTISADNSKNTAYLQMNSLKPEDTAVYYCAADLLGDSDYEPSSGFGWGQGTLVTVSS
The molecule B4 displayed a Kd of 0.113 µM.

B5: variant 5-21 (Fc fusion)
VHH: EVQLVESGGGLVQPGGSLRLSCAASGGTFTTYHMGWFRQAPGKEREFVAHISTGGATNYADSVKGRFTISADNSKNTAYLQMNSLKPEDTAVYYCATFPAIVTDSDYDLGNDWGQGTLVTVSS
In turn, B5 yielded a Kd of 1.07 µM.

B6: variant 5-55 (Fc fusion)
VHH: EVQLVESGGGLVQPGGSLRLSCAASGIDVNRNAMGWFRQAPGKEREFVAAITWSGGWRYYADSVKGRFTISADNSKNTAYLQMNSLKPEDTAVYYCATTFGDAGIPDQYDFGWGQGTLVTVSS
Take B6: the affinity, expressed as Kd, was 0.0635 µM.

B7: variant 5-63 (Fc fusion)
VHH: EVQLVESGGGLVQPGGSLRLSCAASGFSLDYYDMGWFRQAPGKEREFVAALGWSGGSTDYADSVKGRFTISADNSKNTAYLQMNSLKPEDTAVYYCAAGNGGRYGIVERWGQGTLVTVSS
On to B7, for which the Kd was 0.0105 µM.

B8: variant 5-56 (Fc fusion)
VHH: EVQLVESGGGLVQPGGSLRLSCAASGRTFSSNMGWFRQAPGKEREFVARIFGGDRTLYADSVKGRFTISADNSKNTAYLQMNSLKPEDTAVYYCADINGDWGQGTLVTVSS
On to B8, for which binding was characterised by a dissociation constant (Kd) of 0.0543 µM.

B9: variant 5-16 (Fc fusion)
VHH: EVQLVESGGGLVQPGGSLRLSCAASGRTHSIYPMGWFRQAPGKERELVAAIHSGGATVYADSVKGRFTISADNSKNTAYLQMNSLKPEDTAVYYCAARRWIPPGPIWGQGTLVTVSS
On to B9, for which the dissociation constant (Kd) is 0.0502 µM.

B10: variant 5-17 (Fc fusion)
VHH: EVQLVESGGGLVQPGGSLRLSCAASGPTFSIYAMGWFRQAPGKEREFVAGIRWSDVYTQYADSVKGRFTISADNSKNTAYLQMNSLKPEDTAVYYCALDIDYRDWGQGTLVTVSS
On to B10, for which the Kd was determined as 3.63 µM.

B11: variant 5-39 (Fc fusion)
VHH: B10 VHH with P27V, F29L, S30D, I31L, S54T, V56A, Q59E, L98V
The molecule B11 gave a Kd of 0.118 µM.

B12: variant 5-27 (Fc fusion)
VHH: EVQLVESGGGLVQPGGSLRLSCAASGRANSINWMGWFRQAPGKEREFVATITPGGNTNYADSVKGRFTISADNSKNTAYLQMNSLKPEDTAVYYCAAAAGSTWYGTLYEYDWGQGTLVTVSS
The molecule B12 had a Kd of 0.0929 µM.

B13: variant 5-51 (Fc fusion)
VHH: B12 VHH with A28P, E46Q, Q81L, S101T
Turning to B13, the affinity, expressed as Kd, was 0.0255 µM.

B14: variant 5-13 (Fc fusion)
VHH: EVQLVESGGGLVQPGGSLRLSCAASGFTFDYYTMGWFRQAPGKEREFVAAIRSSGGLFYADSVKGRFTISADNSKNTAYLQMNSLKPEDTAVYYCAAYLDGYSGSWGQGTLVTVSS
Molecule B14 gave a Kd of 0.0375 µM.

B15: variant 5-32 (Fc fusion)
VHH: EVQLVESGGGLVQPGGSLRLSCAASGFTPDNYAMGWFRQAPGKEREFVAALGWSGVTTYHYYADSVKGRFTISADNSKNTAYLQMNSLKPEDTAVYYCASDESDAANWGQGTLVTVSS
The molecule B15 yielded a Kd of 0.0224 µM.

B16: variant 5-47 (Fc fusion)
VHH: EVQLVESGGGLVQPGGSLRLSCAASGFTFGSYDMGWFRQAPGKEREFVTAINWSGARTAYADSVKGRFTISADNSKNTAYLQMNSLKPEDTAVYYCAARSVYSYEYNWGQGTLVTVSS
B16 came in with a Kd of 0.0277 µM.

B17: variant 5-26 (Fc fusion)
VHH: EVQLVESGGGLVQPGGSLRLSCAASGRTISSYIMGWFRQAPGKERELVARIYTGGDTIYADSVKGRFTISADNSKNTAYLQMNSLKPEDTAVYYCAARTSYNGRYDYIDDYSWGQGTLVTVSS
The molecule B17 gave a Kd of 21.8 µM.

B18: variant 5-60 (Fc fusion)
VHH: EVQLVESGGGLVQPGGSLRLSCAASGRSFSSHRMGWFRQAPGKEREFVAAIMWSGSHRNYADSVKGRFTISADNSKNTAYLQMNSLKPEDTAVYYCAAIAYEEGVYRWDWGQGTLVTVSS
Molecule B18 registered a Kd of 0.0294 µM.

B19: variant 5-52 (Fc fusion)
VHH: EVQLVESGGGLVQPGGSLRLSCAASGEKFSDHWMGWFRQAPGKEREFVATITFSGARTAYADSVKGRFTISADNSKNTAYLQMNSLKPEDTAVYYCAALIKPSSTDRIFEEWGQGTLVTVSS
For the molecule B19, binding was put at a Kd of 0.099 µM.

B20: variant 5-42 (Fc fusion)
VHH: EVQLVESGGGLVQPGGSLRLSCAASGFTPDDYAMGWFRQAPGKEREFVASIGYSGRSNSYNYYADSVKGRFTISADNSKNTAYLQMNSLKPEDTAVYYCAIAHGSSTYNWGQGTLVTVSS
B20 returned a Kd of 0.116 µM.

B21: variant 5-15 (Fc fusion)
VHH: EVQLVESGGGLVQPGGSLRLSCAASGFTFDGAAMGWFRQAPGKEREFVATIRWTNSTDYADSVKGRFTISADNSKNTAYLQMNSLKPEDTAVYYCARGRYGIVERWGQGTLVTVSS
Take B21: the affinity, expressed as Kd, was 0.0962 µM.

B22: variant 5-28 (Fc fusion)
VHH: EVQLVESGGGLVQPGGSLRLSCAASGGTFSVFAMGWFRQVPGKERELVAEITAGGSTYYADSVKGRFTISADNSKNTAYLQMNSLKPEDTAVYYCAVDGPFGWGQGTLVTVSS
Molecule B22 came in with a Kd of 0.04 µM.

B23: variant 5-23 (Fc fusion)
VHH: EVQLVESGGGLVQPGGSLRLSCAASGSIFSIDVMGWFRQAPGKEREFVAAISWSGESTLYADSVKGRFTISADNSKNTAYLQMNSLKPEDTAVYYCAAFDGYSGSDWGQGTLVTVSS
B23 gave a Kd of 0.0848 µM.

B24: variant 5-3 (Fc fusion)
VHH: B23 VHH with A50G, E56D, S103T
Consider B24, for which binding was characterised by a dissociation constant (Kd) of 0.0646 µM.

B25: variant 5-49 (Fc fusion)
VHH: EVQLVESGGGLVQPGGSLRLSCAASGRTSTVNGMGWFRQAPGKEREFVASISQSGAATAYADSVKGRFTISADNSKNTAYLQMNSLKPEDTAVYYCAADRTYSYSSTGYYWGQGTLVTVSS
Molecule B25 showed a Kd of 0.0745 µM.
